Data on three compounds can be found in patent publication US20090124553A1, “Suppression of inflammation associated with transplantation using an epsilon PKC inhibitor” (priority 2007, published 2009).

One data set addresses T1, εPKC (Rattus norvegicus, UniProt P09216).
T1 sequence (P09216 1-737): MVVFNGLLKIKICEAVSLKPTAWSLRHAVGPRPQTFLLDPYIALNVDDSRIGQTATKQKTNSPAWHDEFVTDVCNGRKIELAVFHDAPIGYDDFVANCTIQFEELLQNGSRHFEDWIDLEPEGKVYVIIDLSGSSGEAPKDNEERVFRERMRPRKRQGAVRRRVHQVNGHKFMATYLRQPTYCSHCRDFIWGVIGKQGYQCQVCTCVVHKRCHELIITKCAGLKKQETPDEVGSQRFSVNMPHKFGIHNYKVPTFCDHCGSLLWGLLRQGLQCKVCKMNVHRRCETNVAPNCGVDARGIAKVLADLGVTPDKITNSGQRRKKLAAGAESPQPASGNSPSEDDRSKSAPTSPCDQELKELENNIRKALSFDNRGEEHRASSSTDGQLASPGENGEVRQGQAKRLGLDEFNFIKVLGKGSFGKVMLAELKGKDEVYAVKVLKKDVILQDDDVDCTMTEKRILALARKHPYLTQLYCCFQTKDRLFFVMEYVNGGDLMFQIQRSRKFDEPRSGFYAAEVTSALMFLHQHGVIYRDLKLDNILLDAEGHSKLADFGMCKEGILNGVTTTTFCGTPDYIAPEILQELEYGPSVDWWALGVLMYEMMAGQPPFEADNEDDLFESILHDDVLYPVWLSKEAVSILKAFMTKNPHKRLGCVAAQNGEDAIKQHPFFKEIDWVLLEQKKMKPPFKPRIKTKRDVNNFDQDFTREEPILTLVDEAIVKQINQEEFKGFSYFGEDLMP
To be noted: from cited literature; cited from earlier work.

A further data set deals with cardiac allografts. The data set can be described thus: Heterotopic cardiac allograft transplantation in mice: graft beating score, toxicity, body weight. It is filed as in vivo. How it is done: In studies performed in support of the present methods, hearts of FVB mice (H-2^q) were transplanted into C57BL/6 mice (H-2^b) to provide an animal model for allograft transplantation. Following transplantation, an isozyme-specific εPKC inhibitor was administered to the transplant recipients. The particular inhibitor was TAT47-57-εV1-2 (i.e., εV1-2), which is described herein.
The εPKC-specific inhibitor, εV1-2, or the carrier/control peptide, TAT, was administered to the recipient animals using osmotic pumps to provide continuous treatment from day 3 following allograft transplantation until sacrifice on day 30. All animals were given 20 mg/kg/day of cyclosporine A (CyA) to ensure survival.
Male […] (H-2^q) and C57BL/6J (H-2^b) mice, 6-8 weeks old, were purchased from Jackson Laboratory (Bar Harbor, Me.) and housed at the animal facility at Stanford University Medical Center (Stanford, Calif.). The εVB mice were used as allograft donors and the C57BL/6J mice were used as recipients. […]
Allograft recipient mice were monitored daily. Graft viability was assessed by direct abdominal palpation of the heterotopically transplanted hearts and expressed as beating score, assessed by the Stanford cardiac surgery lab graft scoring system (Tanaka, M. et al. (2004) Circulation 110:II194-9).

Take “ψεRACK: peptide HDAPIGYD (εPKC 85-92; SEQ ID NO: 9), εPKC-selective agonist”: the “function on εPKC (agonist / antagonist)” value with εPKC is reported as “functioned as a εPKC-selective agonist”.

With HNAPIGYD, the “function on εPKC (agonist / antagonist)” value with εPKC is recorded as “functioned as a εPKC antatgonist/inhibitor”.

Turning to `CC(C)C[C@H](NC(=O)[C@H](CO)NC(=O)[C@@H](NC(=O)[C@H](C)NC(=O)[C@H](CCC(=O)O)NC(=O)[C@@H](N)CSSC[C@H](N)C(=O)N[C@@H](Cc1ccc(O)cc1)C(=O)NCC(=O)N[C@@H](CCCNC(=N)N)C(=O)N[C@@H](CCCCN)C(=O)N[C@@H](CCCCN)C(=O)N[C@@H](CCCNC(=N)N)C(=O)N[C@@H](CCCNC(=N)N)C(=O)N[C@@H](CCC(N)=O)C(=O)N[C@@H](CCCNC(=N)N)C(=O)N[C@@H](CCCNC(=N)N)C(=O)N[C@@H](CCCNC(=N)N)C(=O)O)C(C)C)C(=O)N[C@@H](CCCCN)C(=O)N1CCC[C@H]1C(=O)N[C@H](C(=O)O)[C@@H](C)O` [εV1-2], the toxic effects entry in the data set with cardiac allografts (allograft recipient mice treated day 3-30, compared to TAT-treated group) is reported as “did not demonstrate toxic effects”. The compound also had a body weight in the data set on cardiac allografts (allograft recipient mice, Mean±SEM) of 21.7 ± 0.9 g.
